Key:
[1] = target: PD-L1 extracellular domain (PD-L1-ECD) (UniProt Q9NZQ7); test: SPR; details: bispecific antibody
[2] = target: human CD47 extracellular domain (CD47-ECD) (human) (UniProt Q08722); test: SPR; details: bispecific antibody
[3] = target: T1, human CD47 extracellular domain (CD47-ECD) (human, UniProt Q08722, N-linked glycosylation observed at all five potential sites in the complex structure (N32 and N55 among them)); test: SPR; h4C1 and CD47-ECD proteins (WT, N32A, N55A); who was immobilised and the conditions are not given; details: both partners purified
T1 construct: CD47, human, extracellular domain; also called WT CD47-ECD; human CD47-ECD antigen
T1 sequence (Q08722 19-141): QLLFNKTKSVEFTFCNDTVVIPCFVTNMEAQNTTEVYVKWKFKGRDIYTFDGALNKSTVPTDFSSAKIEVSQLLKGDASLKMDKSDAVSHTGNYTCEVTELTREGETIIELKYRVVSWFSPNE

Sequence of human CD47 extracellular domain (CD47-ECD) (human) (Q08722 19-141): as above
Sequence of PD-L1 extracellular domain (PD-L1-ECD) (Q9NZQ7 19-238): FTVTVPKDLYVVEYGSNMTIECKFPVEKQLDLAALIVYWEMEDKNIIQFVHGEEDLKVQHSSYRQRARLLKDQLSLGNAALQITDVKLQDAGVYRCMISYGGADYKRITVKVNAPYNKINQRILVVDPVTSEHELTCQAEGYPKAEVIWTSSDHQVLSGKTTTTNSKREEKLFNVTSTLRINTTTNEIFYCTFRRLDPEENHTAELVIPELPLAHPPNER

Row | Kd [1] [nM] | Kd [2] [nM] | Kd [3] [nM] | Molecule
1 | 0.74 | 17.4 | – | CD47/PD-L1 dual-targeting bispecific antibody (DVD-Ig format) (from UniProt P01861)
2 | – | – | 0.85 | Humanized 4C1 (h4C1) monoclonal antibody (antibody, V domains shown, Humanised from the murine mAb m4C1 (raised in mice immunised with human CD47); also called h4C1 mAb) VH: QVQLVQSGAEVKKPGASVKVSCKASGYTFTSYVMHWVRQAPGQRLEWMGYINPYNDGTKYNEKFKGKATLTSDKSTSTAYMELSSLRSEDTAVYYCARTEGHFYVSWFAYWGQGTLVTVSS VL: DIQMTQSPSSLSASVGDRVTISCRTSQDISNYLNWYQQKPGKAPKLLIYYTSRLHSGVPSRFSGSGSGTDYTFTISSLQPEDIATYYCQQGNTLPFTFGQGTKLEIK
